Measurements taken from patent publication US20210196796A1 (SYNTHEKINE, published 2021).

T1: orthogonal hCD122 receptor (hoRb), hCD122 with H133D and Y134F (human, UniProt P14784 27-550)
T1 sequence: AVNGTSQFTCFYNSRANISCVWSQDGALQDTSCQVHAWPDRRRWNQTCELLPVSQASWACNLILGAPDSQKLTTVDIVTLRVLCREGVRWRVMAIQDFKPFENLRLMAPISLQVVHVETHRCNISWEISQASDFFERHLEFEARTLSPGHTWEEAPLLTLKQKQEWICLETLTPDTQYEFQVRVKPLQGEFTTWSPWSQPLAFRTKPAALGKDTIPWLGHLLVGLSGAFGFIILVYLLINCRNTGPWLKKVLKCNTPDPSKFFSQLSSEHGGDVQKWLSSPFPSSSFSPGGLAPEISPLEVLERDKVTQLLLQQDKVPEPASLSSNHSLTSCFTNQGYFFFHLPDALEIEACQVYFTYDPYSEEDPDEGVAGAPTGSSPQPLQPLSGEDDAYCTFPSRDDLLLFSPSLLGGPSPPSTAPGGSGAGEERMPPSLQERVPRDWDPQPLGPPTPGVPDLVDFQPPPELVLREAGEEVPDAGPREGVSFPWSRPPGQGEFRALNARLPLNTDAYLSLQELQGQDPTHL


What was measured:
[1] = target: T1, orthogonal hCD122 receptor (hoRb), …; test: cell-based or functional assay
[2] = target: T1, orthogonal hCD122 receptor (hoRb), …; test: cell-based or functional assay; remark: listed apart in the source
For Relative Proliferation Fold Change 3F8 1:10 in this document: reference of the scale not given here.
For Relative Proliferation Fold Change 3F8 1:2 in this document: reference of the scale not given here.
For Relative Proliferation Fold Change 3F8 1:50 in this document: reference of the scale not given here.
For Relative Proliferation Fold Change NKL 1:10 in this document: reference of the scale not given here.
For Relative Proliferation Fold Change NKL 1:2 in this document: reference of the scale not given here.
For Relative Proliferation Fold Change NKL 1:50 in this document: reference of the scale not given here.

Row | Binder | NKL Ortho Proliferation Signal 1:2 [1] | NKL Ortho Proliferation Signal 1:10 [1] | NKL Ortho Proliferation Signal 1:50 [1] | Relative Proliferation Fold Change NKL 1:2 [1] [fold] | Relative Proliferation Fold Change NKL 1:10 [1] [fold] | Relative Proliferation Fold Change NKL 1:50 [1] [fold] | 3F8 Ortho Proliferation Signal 1:2 [2] [cts/min] | 3F8 Ortho Proliferation Signal 1:10 [2] [cts/min] | 3F8 Ortho Proliferation Signal 1:50 [2] [cts/min] | Relative Proliferation Fold Change 3F8 1:2 [2] [fold] | Relative Proliferation Fold Change 3F8 1:10 [2] [fold] | Relative Proliferation Fold Change 3F8 1:50 [2] [fold]
1 | V91R, SQVLKA (ligand) APTSSSTKKTQLQLSQLLVLLKAILNGINNYKNPKLTRMLTFKFYMPKKATELKHLQCLEEELKPLEEVLNLAQSKNFHLRPRDLISNINRIVLELKGSETTFMCEYADETATIVEFLNRWITFCQSIISTLT | 8530 | 5580 | 4420 | 0.86 | 0.53 | 0.44 | 12500 | 5140 | 2850 | 35.6 | 10 | 2.93
2 | V91K, SQVLKA (ligand) APTSSSTKKTQLQLSQLLVLLKAILNGINNYKNPKLTRMLTFKFYMPKKATELKHLQCLEEELKPLEEVLNLAQSKNFHLRPRDLISNINKIVLELKGSETTFMCEYADETATIVEFLNRWITFCQSIISTLT | 5180 | 5210 | 4940 | 0.74 | 0.63 | 0.53 | 3720 | 992 | 804 | 13.4 | 1.44 | 1.25
3 | I92F, SQVLKA (ligand) APTSSSTKKTQLQLSQLLVLLKAILNGINNYKNPKLTRMLTFKFYMPKKATELKHLQCLEEELKPLEEVLNLAQSKNFHLRPRDLISNINVFVLELKGSETTFMCEYADETATIVEFLNRWITFCQSIISTLT | 32200 | 27000 | 12800 | 2.32 | 1.84 | 0.92 | 29700 | 36300 | 20900 | 80.2 | 57.6 | 18.4
4 | K97Q, SQVLKA (ligand) APTSSSTKKTQLQLSQLLVLLKAILNGINNYKNPKLTRMLTFKFYMPKKATELKHLQCLEEELKPLEEVLNLAQSKNFHLRPRDLISNINVIVLELQGSETTFMCEYADETATIVEFLNRWITFCQSIISTLT | 53000 | 55400 | 25200 | 3.29 | 3.64 | 1.9 | 35600 | 40100 | 19700 | 91.6 | 32.5 | 33.1
5 | L14M, SQVLKA (ligand) APTSSSTKKTQLQMSQLLVLLKAILNGINNYKNPKLTRMLTFKFYMPKKATELKHLQCLEEELKPLEEVLNLAQSKNFHLRPRDLISNINVIVLELKGSETTFMCEYADETATIVEFLNRWITFCQSIISTLT | 57200 | 54500 | 26700 | 3.76 | 3.45 | 1.98 | 39800 | 41500 | 18500 | 40.9 | 34.1 | 12.1
6 | M104A, SQVLKA (ligand) APTSSSTKKTQLQLSQLLVLLKAILNGINNYKNPKLTRMLTFKFYMPKKATELKHLQCLEEELKPLEEVLNLAQSKNFHLRPRDLISNINVIVLELKGSETTFACEYADETATIVEFLNRWITFCQSIISTLT | 47600 | 54800 | 29500 | 3.88 | 3.48 | 2.09 | 29300 | 42400 | 27100 | 24.4 | 37.6 | 39.7
7 | D109C, SQVLKA (ligand) APTSSSTKKTQLQLSQLLVLLKAILNGINNYKNPKLTRMLTFKFYMPKKATELKHLQCLEEELKPLEEVLNLAQSKNFHLRPRDLISNINVIVLELKGSETTFMCEYACETATIVEFLNRWITFCQSIISTLT | 47800 | 44200 | 20400 | 4.2 | 3.22 | 1.52 | 29100 | 34000 | 18600 | 84 | 51.4 | 23.2
8 | T113N, SQVLKA (ligand) APTSSSTKKTQLQLSQLLVLLKAILNGINNYKNPKLTRMLTFKFYMPKKATELKHLQCLEEELKPLEEVLNLAQSKNFHLRPRDLISNINVIVLELKGSETTFMCEYADETANIVEFLNRWITFCQSIISTLT | 47400 | 48800 | 21400 | 3.71 | 3.45 | 1.63 | 31600 | 33100 | 13600 | 39.6 | 38.8 | 12.7
9 | C125A, SQVLKA (ligand) APTSSSTKKTQLQLSQLLVLLKAILNGINNYKNPKLTRMLTFKFYMPKKATELKHLQCLEEELKPLEEVLNLAQSKNFHLRPRDLISNINVIVLELKGSETTFMCEYADETATIVEFLNRWITFAQSIISTLT | 42000 | 50400 | 22800 | 3.95 | 3.6 | 1.95 | 43700 | 44600 | 24800 | 0.72 | 4.37 | 5.3
10 | C125S, SQVLKA (ligand) APTSSSTKKTQLQLSQLLVLLKAILNGINNYKNPKLTRMLTFKFYMPKKATELKHLQCLEEELKPLEEVLNLAQSKNFHLRPRDLISNINVIVLELKGSETTFMCEYADETATIVEFLNRWITFSQSIISTLT | 48200 | 59500 | 27800 | 4.29 | 4.53 | 2.26 | 36200 | 45000 | 26100 | 140 | 66.6 | 26.9
11 | Q126H, SQVLKA (ligand) APTSSSTKKTQLQLSQLLVLLKAILNGINNYKNPKLTRMLTFKFYMPKKATELKHLQCLEEELKPLEEVLNLAQSKNFHLRPRDLISNINVIVLELKGSETTFMCEYADETATIVEFLNRWITFCHSIISTLT | 43600 | 29000 | 15800 | 3.64 | 1.92 | 1.09 | 36500 | 38600 | 18700 | 181 | 54.1 | 14.5
12 | Q126M, SQVLKA (ligand) APTSSSTKKTQLQLSQLLVLLKAILNGINNYKNPKLTRMLTFKFYMPKKATELKHLQCLEEELKPLEEVLNLAQSKNFHLRPRDLISNINVIVLELKGSETTFMCEYADETATIVEFLNRWITFCMSIISTLT | 19800 | 18700 | 9760 | 2 | 1.29 | 0.74 | 33100 | 33200 | 17100 | 154 | 55.6 | 31.8
